Data: patent publication US20090304651A1 (published 2009)

Biological target: T1, recombinant human IGF-II (Insulin-like Growth Factor II) (human, UniProt P01344 25-91, biotinylated (Biotinyl-IGF-II, GroPep) where immobilised in SPR, site not stated; not biotinylated in ITC and as SPR analyte)
T1 construct: also called IGF2; IGF-2
Assay: ITC
Method: Calorimetric measurements were performed using a VP-ITC microcalorimeter (MicroCal). All solutions were thoroughly degassed before use by stirring under vacuum. […] The sample cell contained either wild type domain 11 (7 uM) or the E1544A mutant (8 μM), also in HBS-E buffer. To correct for the heat effects of dilution and mixing, reaction heats obtained from a control experiment, in which IGF2 was injected into HBS-E, were subtracted. Calorimetric data were analysed using MicroCal ORIGIN software (version 5.0) supplied with the instrument. Thermodynamic parameters were derived by fitting the binding isotherms to a single-site binding model. Values for dissociation affinity constants (KD) were determined from duplicate experiments.
In order to validate the SPR sensorgram data, ITC was used to assess the binding affinity between domain 11 and IGF-II. The affinity of the E1544A mutant was also assessed by ITC in order to confirm whether use of a second technique agreed as to the apparent increase in affinity (FIG. 6 and Table 6). Titrations were performed using 17×15 μl injections of 40 μM IGF-II (after an initial 7.51 injection) into the reaction cell containing wild type domain 11 or the E1544A mutant. […] The two fold differences may be simply accounted for by the fidelity of both techniques.

T1 sequence (P01344 25-91 limits assumed): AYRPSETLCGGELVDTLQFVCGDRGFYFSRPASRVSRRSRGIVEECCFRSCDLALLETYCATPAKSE

B1: IGF2R domain 11 E1544A (amino acids 1511-1650, C-terminal His6 tag, from Pichia pastoris) (receptor)
chain: NEHDDCQVTNPSTGHLFDLSSLSGRAGFTAAYSAKGLVYMSICGENENCPPGVGACFGQTRISVGKANKRLRYVDQVLQLVYKDGSPCPSKSGLSYKSVISFVCRPEAGPTNRPMLISLDKQTCTLFFSWHTPLACEQATHHHHHH
With B1 the “relative affinity increase over wild type” value was roughly 2 fold.
